The values that follow are results of earlier work, collected in paper PMC4414177, “A novel orally active water-soluble inhibitor of human glutathione transferase exerts a potent and selective antitumor activity against human melanoma xenografts” (Oncotarget, 2015).

A value given as a limit tells only on which side of the number the result lay.

One may read the Kd as the free concentration of one partner at which half of the binding sites on the other are occupied at equilibrium, for simple one-to-one binding.

This series addresses GSTP1-1 (Homo sapiens) (UniProt P09211). Kind of series: ELISA.

GSTP1-1 (Homo sapiens), sequence (P09211 2-210): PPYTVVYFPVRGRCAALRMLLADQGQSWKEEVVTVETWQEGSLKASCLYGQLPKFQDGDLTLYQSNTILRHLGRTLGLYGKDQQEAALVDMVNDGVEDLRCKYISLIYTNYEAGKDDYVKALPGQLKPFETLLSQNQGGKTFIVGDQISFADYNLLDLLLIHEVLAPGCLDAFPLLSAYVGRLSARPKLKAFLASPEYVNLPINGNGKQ
TRAF2 CTD, sequence (Q12933 310-501): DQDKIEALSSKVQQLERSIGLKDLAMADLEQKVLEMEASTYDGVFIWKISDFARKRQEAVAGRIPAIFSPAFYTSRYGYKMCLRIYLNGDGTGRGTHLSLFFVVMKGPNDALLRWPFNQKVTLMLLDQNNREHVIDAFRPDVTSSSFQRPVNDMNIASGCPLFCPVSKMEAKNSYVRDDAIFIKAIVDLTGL
JNK1α2, sequence (P45983 whole entry): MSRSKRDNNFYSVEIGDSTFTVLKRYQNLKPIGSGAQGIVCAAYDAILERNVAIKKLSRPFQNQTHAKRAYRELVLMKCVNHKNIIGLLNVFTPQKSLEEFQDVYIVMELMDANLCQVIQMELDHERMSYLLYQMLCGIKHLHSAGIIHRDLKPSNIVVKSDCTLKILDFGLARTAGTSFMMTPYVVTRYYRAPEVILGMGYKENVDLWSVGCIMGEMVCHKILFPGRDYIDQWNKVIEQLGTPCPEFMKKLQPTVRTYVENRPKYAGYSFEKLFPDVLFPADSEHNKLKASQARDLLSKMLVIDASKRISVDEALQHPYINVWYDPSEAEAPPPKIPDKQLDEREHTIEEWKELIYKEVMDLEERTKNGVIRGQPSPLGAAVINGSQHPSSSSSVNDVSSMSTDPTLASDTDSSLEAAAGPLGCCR

For TRAF2 CTD (from UniProt Q12933), the Kd is above 5 µM.
On to JNK1α2 (from UniProt P45983), for which the Kd is above 10 µM.
